Reference: a protein production outcome set (Wang et al. 2014)

Assay: label from the status in PepcDB records

For “TSSLHPTRGKLLKRFAQIGPYIREQQCQESQFFFDCLAVCVNKKVTPEKREFWGWWMELERNGEQLIYYYQVGLFDKNGDWVNQVISKKDVIESIHETLIRFHDFLQAAVSELEMTLVPDEKMSNFPLPL”, the protein production was “not failed”.
With “MTALTPLQRLWLTETVRLREEHAGPLEDQEANRLARNQGGDLATRIQNRALWLAQRDGLHSALLHWHQGARMALLALSVLAVISGAGLAFSALGSTQQPVNVFWALGSLLGINLILLLSWLAGLLFAGEHGASLGRLWLWLSEKFSRDAKAAQLPPALLLLLQRRKLNRWALGSLINGLWCLALFSAVVMLLLLLTTHRYSFVWESTLLGSDAFVAITNTLSALPRGLGFGAPSVASIQASTRDVYNTELIRQSWAIWLVVLVTIYGVLPRLLLMLFCRWRWKHGQARLQLDLNLPGYAQLRERLMPSSERLGVNDAAPEQLHRVEGGVSAQDSSGALLVAIELDNQRPWPPQLPESIKDAGILDSRESRSRLLEQMSRFPPARLVIACDPRRSPDRGSLGLIAELARNASATRVWLLQAPPGQALDADRLGDWHSALHKLQLPFADCAPLDWLENGHD” the protein production was “failed”.
For “MQSYFSPLLDAMHAWLMLQLPGPVAGALLGGLHALVFIPLAALAWRVLSNESRRAQWVPLFALAGMCSAVFLSELGNTMGDTASAIPVLAALAVVLLAQFRARNGLHVVHLWAVAGALIGLAVALKLTNALYALALVPAVLCDGGRLRSRVLALSVLAGVALLVLLLVAGPWYWQVWQHLGNPLFPQFNGVFKSPLAQPVSIADVRWLPRTIGEQLIWPLLFTLKPQRIGDLGLVQAGWAVLYGVVAIAAGRALVRRPVRAAAVDRAAIVLLVFFGVAYALWQAIFSIHRYLVVLELLAPLVLWIVCRHAFAARANRKAAWLIGACALVAVVGWKDWGHESWARESFQVEQPVLGNPAASSVLLVGDEPQSWRVPLLPSQARYIGVATNISETDHYRQRVRALIAERPQLYAMLGAARDKQQVRIDRMNRLAQQFGWERQPGCSRLRWLVARGLRAELDTSQPDRCVLAIPKGKALDIAAADQAVREAAQQRLAAYGLTLDPARCRTLSSQVGQAVYPYQFCQLALPN”, the protein production was “failed”.
In the case of “MRERKKYGKHIPKSLSSKINKRKLIQKNICTNYKTIKIIDIYENLPYNQLNNGRTKIKEIILANDVLVVLLISGISRAYNMINGEFLCEINPNNFSVVHTIVYNSYNNTLIIAYASFPAHLQCKVIDCNDLKHGITNSSKLGILFGT”, the protein production is reported as “failed”.
With “GSSGSSGMDEDVLTTLKILIIGESGVGKSSLLLRFTDDTFDPELAATIGVDFKVKTISVDGNKAKLAIWDTAGQERFRTLTPSYYRGAQGVILVYDVTRRDTFVKLDNWLNELETYCTRNDIVNMLVGNKIDKENREVDRNEGLKFARKHSMLFIEASAKTCDGVQCAFEELVEKIIQTPGLWESENQNSGPSSG” the protein production was “not failed”.
With “ARPCIPKSFGYSSVVCVCNATYCDSFDPPTFPALGTFSRYESTRSGRRMELSMGPIQANHTGTGLLLTLQPEQKFQKVKGFGGAMTDAAALNILALSPPAQNLLLKSYFSEEGIGYNIIRVPMASCDFSIRTYTYADTPDDFQLHNFSLPEEDTKLKIPLIHRALQLAQRPVSLLASPWTSPTWLKTNGAVNGKGSLKGQPGDIYHQTWARYFVKFLDAYAEHKLQFWAVTAENEPSAGLLSGYPFQCLGFTPEHQRDFIARDLGPTLANSTHHNVRLLMLDDQRLLLPHWAKVVLTDPEAAKYVHGIAVHWYLDFLAPAKATLGETHRLFPNTMLFASEACVGSKFWEQSVRLGSWDRGMQYSHSIITNLLYHVVGWTDWNLALNPEGGPNWVRNFVDSPIIVDITKDTFYKQPMFYHLGHFSKFIPEGSQRVGLVASQKNDLDAVALMHPDGSAVVVVLNRSSKDVPLTIKDPAVGFLETISPGYSIHTYLWHRQ” the protein production was “not failed”.
With “VNFEVKDQTLMMELVPERLRGETATFDIEADGKVYVEKGRRVTARHIRQLEKDGVNFIEVPVEYIVGKVSAKDYVNEATGELIITANQEISLEALANLSQAG” the protein production was “not failed”.
In the case of “MSLDFHGVFPYLVSPVDAEGRVRADVMGRLCDDLIQAGVHGLTPLGSTGEFAYLGTAQREAVVRATIEAAQRRVPVVAGVASTSVADAVAQAKLYEKLGADGILAILEAYFPLKDAQIESYFRAIADAVEIPVVIYTNPQFQRSDLTLDVIARLAEHPRIRYIKDASTNTGRLLSIINRCGDALQVFSASAHIPAAVMLIGGVGWMAGPACIAPRQSVALYELCKAQRWDEALMLQRKLWRVNEAFAKFNLAACIKAGLALQGYDVGDPIPPQAALTAEERKAVEKVLAEIAEGHHHHHH”, the protein production is reported as “not failed”.
In the case of “METLHPFSHLPISDHRFVVQEMVSLHSSSSGSWTKEENKMFERALAIYAEDSPDRWFKVASMIPGKTVFDVMKQYSKLEEDVFDIEAGRVPIPGYPAASSPLGFDTDMCRKRPSGARGSDQDRKKGVPWTEEEHRRFLLGLLKYGKGDWRNISRNFVVSKTPTQVASHAQKYYQRQLSGAKDKRRPSIHDITTGNLLNANLNRSFSDHRDILPDLGFIDKDDTEEGVIFMGQNLSSENLFSPSPTSFEAAINFAGENVFSAGA”, the protein production is reported as “failed”.
With “MSEYLHIIIWFFLIEALSFISVPFIRSAGNRLADGGYSVSRALGIMLVTYLSWIFSYILGFSFTAVLIAFFLLCSVSIFLYRKQKFFPGRKVLVVNELVFASGFFFFLLVRTYLPEIYRHEKFMDFAFLNAVIRASSFPPQDPWFAGGLMDFYYYFGYLSVAVFGKLSAVKPSILFNLAVALTFALSLNAFFGMGYNLTRGKIRYGILTAVFGMLLGNLQGLIEFVSVYIRHEQALGGYYWSSSRVIPFTINEFPYFSFIHGDLHSHMLAIPFQLLVLAFLLNMHFRKNEDSIFENSLALLMFSMSLGFLFPFNSWDFPVYFGLAFLVIFAFYCGDYVHNRNLFAAVAKFSNSMIFISIFSFLPYLLFYLDFNPQAAGGFDFVLPELRTETDRFLILFGLFLFLVFSFLITRLDSRRKIVFFVLLAGVSALLSKAWSIPLLAVLLPVFVFSLLLFLKDIPERSASGFVYLLISAASFIALLCEVIFLDDPISGEFARMNTVFKFYMHLWIFLAISAAYSYYDLNSHYAARSGNRKTLKQFVKKGWSVILVILIICCAIFPAVSTVTRIKEMNAEPSLDGMEYMRELDRGDYNAIRWMQANIKGSPVILETSEDDSSYSYACRVSSNTGIPAVIGWARHERFWGRDHEEVKKRIGDVSLIYSTGSEEEAIELIEKYNVTYVYIGTLERQVYDVNTKKFENKAYFEPVYEGSATIYKLKKKP” the protein production was “failed”.
With “MKLMVNHQTHYHYSEVARNSIQYIKMIPQSSPHQLVHYWDISVPGERIMKRDAFDNLWITSSQRFDYQNLTIMAQGIVELNLQNSGCHDSVVLPHVFLQPTPATLCDAEMLNFALEIVKTKDVSSLINLSQKILERITYSPYSTNVQTTAIDAFYAAQGVCQDHAHVMIAMCRALNLPARYVSGYLYDYNSPHLASHAWAEVYVDHEWHCFDVSNQIFVPKTHIYVAIGRDYFDVAPIRGIRENGGIEEMISTVQVLAC” the protein production was “failed”.
For “MSESCILFFVKYPEPGKVKTRLGEVVGNDKAAMLYRHFVQDMLQGLARLHADLHICYVPGDADLPEKFKAWLGPQHMFAAQQGLDLGERMKHAMQKAFDDGYDRVVLMGSDIPDYPCELVQKALNDLQHYDAAIGPAFDGGYYLIGFRKDSFCPDVFDGIRWGEADVYQPTVEKMRRARLEVLQLPDWNDVDTVWDLNVLYRTNKNSSFRRSSTYALLRENDALIRQYDIDLPGMAPVEKE”, the protein production was “not failed”.
With “MSANSHFHSTHESHYQCAVCSSIDANPNSLAVNYQCLADSSVVGEFHVLPRHQGYTDLLHGGIASSLLDGAMTHCLLFRDIQALTAQLDVRYHAPIELDEHVTITAHCEGERRGIYQLVAQLLVNNEVRVTAKGKFIRPKEA” the protein production was “failed”.
For “MNLDHLYPFGFRSTLFDRLTPEYEDLKGLSIHQLRESVARDLEDLLNSRVAKMDDVLVNYPLARQSILQFGIIDFVGLSTANPMDREKICQSIEQSIAAHEPRLKQVKVEMLLDGHNMGALCLSIQAYLNIHPLYEPVVFDALLKPTTQQYVISAQT”, the protein production was “failed”.
